The values that follow come from paper PMC4188581 (2014).

This test has as its target CDK2 (Homo sapiens, UniProt P24941). As to the kind of experiment: SPR.

B1: LAALS peptide (peptide)
chain: LAALS
modifications: 60 uM ATP
What is called Kd is the free concentration of one partner at which half of the binding sites on the other are occupied at equilibrium, for simple one-to-one binding. Regarding B1, the Kd was 61 µM.
